For test [1], the target named is T1, myc-tagged HSP-1 (^mycHSP-1) (Caenorhabditis elegans, UniProt P09446 1-640).
T1 construct: Bacterially expressed from pET-^mycHSP-1; also called C. elegans Hsp70 homolog; Hsp70 ortholog HSP-1; not shown: N-terminal myc tag introduced 5' of the cDNA by PCR (pET21a)
Put plainly: summary sentence of Example 5 on the earlier binding assays. The procedure: (§1) Binding of UNC-45^FLAG, ^mycCHN-1, ^mycCHN-1^ΔU-box, ^mycCHN-1^ΔTPR, ^mycCHN-1^Δ, ^mycUFD-2, ^mycUFD-2^{ΔU-box,} ^mycHSP-1 to GST-UFD-2 or GST-CHN-1 was done in buffer A [10 mM Tris pH 8, 10 mM DTT, Complete protease inhibitors (Boehringer)]+150 mM NaCl at 4° C. for 60 min. Glutathione-Sepharose beads were washed at least five times in buffer A with 0.1% Triton X-100 and 150 mM NaCl and bound proteins were eluted with SDS-PAGE sample buffer. Sonicated lysates from wild-type worms expressing the transgene P_unc-54::unc-45^FLAG were incubated with anti-FLAG M2-agarose beads (Sigma) in 50 mM Tris/HCl (pH 8.0), 100 mM NaCl, 10% glycerol, 1% Triton X-100 and 5 mM PMSF at 4° C. for 3 hours. Samples were precipitated with protein G-agarose beads (Amersham Pharmacia). Immunoprecipitates were washed at least five times in the same lysis buffer, were eluted with SDS-PAGE sample buffer and were separated by SDS gel electrophoresis followed by Western blotting using anti-FLAG M2 monoclonal antibodies (Sigma) or anti-Ubiquitin monoclonal antibodies (Chemicon).

In another test the target is T2, GST (UniProt P08515 1-218 = GST).
T2 construct: Negative control of the pull-down experiments; also called GST alone; immobilized GST
T2 sequence (P08515 whole entry): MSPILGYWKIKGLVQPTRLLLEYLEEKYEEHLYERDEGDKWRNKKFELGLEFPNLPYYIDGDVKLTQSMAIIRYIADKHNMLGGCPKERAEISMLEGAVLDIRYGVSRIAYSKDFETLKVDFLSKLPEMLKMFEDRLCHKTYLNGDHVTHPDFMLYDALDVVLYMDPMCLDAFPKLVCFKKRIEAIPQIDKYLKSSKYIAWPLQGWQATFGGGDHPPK
The test is described as follows: GST pull-down with glutathione-Sepharose beads. Here is the method:
(C) Complex of CHN-1, UFD-2 and UNC-45. GST-UFD-2 was incubated with purified FLAG-tagged UNC-45 (UNC-45^FLAG) and myc-tagged CHN-1 (^mycCHN-1) together, ^mycCHN-1 or UNC-45^FLAG alone and pulled down with glutathione-Sepharose beads. GST alone with UNC-45^FLAG and ^mycCHN-1 served as the negative control.
as §1

Test [2] has as its target T3, FLAG-tagged UNC-45 (UNC-45^FLAG) (Caenorhabditis elegans).
T3 construct: Purified as described in Barral 2002; also called ^FLAGUNC-45; purified UNC-45
The test is described as follows: GST pull-down, equimolar GST-UFD-2 or GST-CHN-1 with identical amounts of purified UNC-45. The procedure:
(B) In vitro binding of UNC-45 by UFD-2 or CHN-1. Equimolar amounts of GST-UFD-2 and GST-CHN-1 were incubated with the same amount of purified FLAG-tagged UNC-45 (UNC-45^FLAG) and pulled down with glutathione-Sepharose beads. GST alone with UNC-45^FLAG served as the negative control.
Binding of UNC-45^FLAG, ^mycCHN-1, ^mycCHN-1^ΔU-box, ^mycCHN-1^ΔTPR, ^mycCHN-1^Δ, ^mycUFD-2, ^mycUFD-2^{ΔU-box,} ^mycHSP-1 to GST-UFD-2 or GST-CHN-1 was done in buffer A [10 mM Tris pH 8, 10 mM DTT, Complete protease inhibitors (Boehringer)]+150 mM NaCl at 4° C. for 60 min. Glutathione-Sepharose beads were washed at least five times in buffer A with 0.1% Triton X-100 and 150 mM NaCl and bound proteins were eluted with SDS-PAGE sample buffer. […]
To compare their binding efficiencies, pull-down experiments were performed using equimolar amounts of GST-UFD-2 or GST-CHN-1 with identical amounts of purified UNC-45. […] Binary mixtures containing immobilized UFD-2 and either UNC-45 or CHN-1, and a ternary mixture containing all three proteins were set up and the resulting complexes analyzed by SDS-polyacrylamide gel electrophoresis. Approximately equimolar complexes were detected between UFD-2 and both CHN-1 and UNC-45 in the binary mixtures and among the three proteins in the ternary mixture. […]

T1 sequence (P09446 whole entry): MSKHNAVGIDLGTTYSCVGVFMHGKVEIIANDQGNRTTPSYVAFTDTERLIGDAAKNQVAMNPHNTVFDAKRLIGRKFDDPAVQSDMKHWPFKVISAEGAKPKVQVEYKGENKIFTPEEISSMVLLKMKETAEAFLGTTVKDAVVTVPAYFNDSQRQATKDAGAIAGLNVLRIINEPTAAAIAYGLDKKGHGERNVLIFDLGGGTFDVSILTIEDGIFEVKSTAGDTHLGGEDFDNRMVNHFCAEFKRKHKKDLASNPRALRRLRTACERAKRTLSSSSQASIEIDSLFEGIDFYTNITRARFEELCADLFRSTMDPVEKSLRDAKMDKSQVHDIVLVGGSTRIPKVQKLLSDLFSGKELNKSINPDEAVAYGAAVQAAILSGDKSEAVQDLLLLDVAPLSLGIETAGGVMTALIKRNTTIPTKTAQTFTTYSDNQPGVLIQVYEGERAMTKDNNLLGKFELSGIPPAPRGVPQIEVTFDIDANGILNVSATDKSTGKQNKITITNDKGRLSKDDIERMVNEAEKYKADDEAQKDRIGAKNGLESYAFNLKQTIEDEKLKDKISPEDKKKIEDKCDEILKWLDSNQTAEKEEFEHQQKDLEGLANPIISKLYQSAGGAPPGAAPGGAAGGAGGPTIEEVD

B1: GST-CHN-1 (enzyme)
chain: MSSGAEQHNTNGKKCYMNKRYDDAVDHYSKAIKVNPLPKYYQNRAMCYFQLNNLKMTEEDCKRALELSPNEVKPLYFLGNVFLQSKKYSEAISCLSKALYHNAVITNAPDIENALKRARHQKYEEEESKRIVQDVEFHTYLESLIEKDRQENSENPEELQRADMAKKRLTELTLATQEKRQNREVPEMLCGKITLELMKEPVIVPSGITYDREEIVQHLRRIGHFDPVTRKPLTENEIIPNYALKEVIEKFLDDNPWAKYEPGGMV
notes: GST fusion from pGEX-CHN-1, purified from E. coli; also called GST-tagged version of CHN-1; not shown: glutathione S-transferase (GST) encoded by vector pGEX4T1
As for B1, in test [1], the binding result is recorded as “binds”.

B2: myc-tagged CHN-1 (^mycCHN-1) (enzyme)
chain: B1 chain
notes: Full-length CHN-1, bacterially expressed from pET-^mycCHN-1; also called C. elegans CHIP ortholog; not shown: N-terminal myc tag introduced 5' of the cDNA by PCR (pET21a)
Turning to B2, in the test with GST, the binding result is “no binding”.

B3: GST-UFD-2 (enzyme, Caenorhabditis elegans, UniProt Q09349 1-984, looked up)
chain: MIEDEKAGLQPMDISDASVFFFQADVESKDFLTSLFDCEGKSDDRMLRYADAIIDVQNLNFDVSPQCLQSNIAEIITKFVLLSQDGSRRGLSRSFNFIDPDIIAGCREEDAIEFLLINFVRCHHELGKSGTSNCYKKTLESTRKAVFSVFVMIQRGYLESQLRSQHASLVFTKRLLEDTVSNVFLRTLVEYLASTDECDEDAITETFNPIFGILRSGIICQRFEDNKDEIVRQILRVMNLLLSIRLPSNGPRPLSNLLVNREDFLPTPSEKIQGREFGLMSFLGPFFSYGLESSARRPNHRVFVDCEEDARKYDGSVNTEQKLYFQRMDPIRTMLHQLMLPLASDQGSRNKTLRWIATIISTNDIRTRSHYDPSDVLCDHYMTNFLSVMYMFSEKIDLSKIIVDYPFLPSSLINISKETRLKMDESGAVAFASQFADRPDEYHFSTVCFFLTIAAQRLVIPPLMNQISEYSRHLKELKHKINALKEKLNTVSGFERAEVEKKLNYETEHWKLMSRHLLCVKTQAQDPALMASSMDFVDKQMKFILNLLCDNLDLLGDDSQLPTEVSQMFCALPEYFLEDALDFYIFAISNGMKLLMERNADWISRLTVLFTQYHYIKSPFLVSKLVRVLSSIQPPLWFNVVRLRMAQENLLMCMIKFYSDFEDNGDFYEKFNVRGNIQYMLEKMEEDMFYKGKFMDMARECGAEFIRFVNMVINDATWCIDESLSGLKSIHDVEKKMANKVEWDNTDQEIRNQDLGVYEEAKRKVKGWLGTAKSNLKLLLSITVNSPEPFRTPVLGERLAAMLNHNLSQLIGSKASELKVKDPRSYGWEPREFVSLLISIYLKLNMPAFVKYIAYDERTYSPEFFHNAIECMRKNSIVGFSQLESFEHLAEDVKKEYEAKAELEEEYDDVPEEFKDPIMDAIMVDPVKLPSGHVMDRAVIERHLLSTPNNPFNRAPLSHNELSPDSELKAKIQEWICQKRNSKK
notes: GST fusion from pGEX-UFD-2, purified from E. coli; also called immobilized GST-UFD-2; not shown: glutathione S-transferase (GST) encoded by vector pGEX4T1
With B3, the “fold more UNC-45 bound than by GST-CHN-1” value in test [2] is about 20 fold.

For the origin of these results see patent US20090053196A1 (LUDWIG MAXIMILLIANS UNIVERSITAT MUNCHEN, published 2009).
